Reference: US20090246142A1, “Triggered Self-Assembly of Nanoparticles In Vivo” (MASSACHUSETTS INSTITUTE OF TECHNOLOGY, priority 2006, published 2009)

Molecular target: TAMRA-C(Ahx)QpYDHPNI-CONH2 (CRK SH2-binding phosphopeptide) on nanoparticles (pY-peptide TSACs)
Experiment: DLS of nanoparticle assembly, 12 nM TSACs, both partners polyvalent on particles

Substance: Crk SH2 domain with an N-terminal cysteine (cys-SH2), conjugated to iron oxide nanoparticles (SH2 TSACs) (from UniProt P46108 13-118)
- hydrodynamic radius increase: 10 fold
